# Measured values from article PMC5262380, “Structural insights into the mechanism of the DEAH-box RNA helicase Prp43” (eLife, 2017).
# Residue numbers refer to the chain shown, from its start. In names and notes the source's numbering stands.
# B1: ctPrp43 + ctPfa1-GP (Thermochaetoides thermophila DSM 1495; F181C/N623C) (protein)
# chain: MADITKGTKRLSGEAEGSQDSKRVKTNGDKMDAKNPYLAHLEEKPEADFESLLDKLERRNTTAKQAEAVEDSDINPWTGQRHSERYFKILKARRKLPVNKQRQEFLDLYHNNQILVFVGETGSGKTTQIPQYVLYDELPHQTGKLIACTQPRRVAAMSVAQRVADELDVKLGEEVGYSIRCENKTSSKTLLKYMTDGQLLREAMHDRDMSRYSCIILDEAHERTLATDILMALLKQLSERRKDLKIIVMSATLDAQKFQSYFFNAPLLAVPGRTHPVEIFYTPEAERDYVEAAIRTVLQIHACEPEGDILLFLTGEEEIEDACRRISLEVDEMIRESDAGPMSVYPLYGTLPPHQQQRIFEKAPQPFRPGGRPGRKCIVATNIAETSLTIDGIVYVVDPGFSKQKIYNPRTRVESLLVSPISKASAQQRAGRAGRTRPGKCFRLYTEEAFKKELIEQTYPEILRSNLSNTVLELKKLGVEDLVHFDLMDPPAPETMMRALEELNYLACLDDDGELTPLGNLASEFPLDPALAVMLISSPEFYCSNEILSITSLLSVPQIWVRPANARKRADEMKAQFAHPDGDHLTLLNAYHAYKGAEARGEDMKKWCHEHFLSYRHLSSADCVRAQLKKIMETHGIELVSTPFHDKNYYTNIRRALLAGFFMQVAMRESSNSKVYKTVKDEQLVLIHPSTTVTTPYEWVVYNEFVLTTKQYVRTVTNIRPEWLLEIAPVYYDLSTFQKGEIKNALTRVAEKIRRQQAMKASKA
# notes: full-length Prp43 (GST tag removed) plus G-patch fragment ctPfa1(662-742) in five-fold excess, both recombinant, tags cut; with Uncharacterized protein (G-patch protein Pfa1)
# B2: ctPrp43 (Thermochaetoides thermophila DSM 1495; T350G/Y348G) (protein)
# chain: B1 chain with C181F, Y348G, T350G, C623N
# notes: full length (residues 1-764), recombinant, GST tag removed, expressed as previously described
# B3: ctPrp43 + ctPfa1-GP (Thermochaetoides thermophila DSM 1495; F181G/R180G/T350G/Y348G) (protein)
# chain: B1 chain with R180G, C181G, Y348G, T350G, C623N
# notes: as for B1
# B4: ctPrp43 (Thermochaetoides thermophila DSM 1495; F181G/R180G/T350G/Y348G) (protein)
# chain: B1 chain with R180G, C181G, Y348G, T350G, C623N
# notes: as for B2
# B5: ctPrp43 + ctPfa1-GP (Thermochaetoides thermophila DSM 1495; T350G/Y348G) (protein)
# chain: B1 chain with C181F, Y348G, T350G, C623N
# notes: as for B1
# B6: ctPrp43 (Thermochaetoides thermophila DSM 1495; F181C/N623C) (protein)
# chain: B1 chain
# notes: as for B2
# Columns and labels:
# [1] = substrate: Nc1ncnc2c1ncn2[C@@H]1O[C@H](COP(=O)(O)OP(=O)(O)OP(=O)(O)O)[C@@H](O)[C@H]1O; assay: NADH-coupled ATPase assay (pyruvate kinase / lactate dehydrogenase); format: biochemical, Thermochaetoides thermophila; conditions: no RNA, ctPfa1-GP in five-fold excess, pH 7.5, 150 mM KCl, 3 mM MgCl2, 25 °C
# Description: NADH-coupled ATPase assay (pyruvate kinase / lactate dehydrogenase) on ctPrp43 + ctPfa1-GP
# [2] = substrate: Nc1ncnc2c1ncn2[C@@H]1O[C@H](COP(=O)(O)OP(=O)(O)OP(=O)(O)O)[C@@H](O)[C@H]1O; assay: as above; format: biochemical, Thermochaetoides thermophila; conditions: no RNA, no G-patch, pH 7.5, 150 mM KCl, 3 mM MgCl2, 25 °C
# Description: NADH-coupled ATPase assay (pyruvate kinase / lactate dehydrogenase) on ctPrp43
# [3] = ctPrp43-IDSB, mainly oxidized (internal disulfide bond)
protein,measurement,setting,value
B1,Km,[1]; [3],29.04 ± 1.35 µM
same,kcat,[1]; [3],3.32 s⁻¹
B2,Km,[2]; ctPrp43-HL,14.31 ± 0.71 µM
same,kcat,[2]; ctPrp43-HL,0.103 s⁻¹
B3,Km,[1]; ctPrp43-HT&HL,25.17 ± 1.37 µM
same,kcat,[1]; ctPrp43-HT&HL,1.89 s⁻¹
B4,Km,[2]; ctPrp43-HT&HL,16.72 ± 1.49 µM
same,kcat,[2]; ctPrp43-HT&HL,0.127 s⁻¹
B5,Km,[1]; ctPrp43-HL,14.38 ± 0.89 µM
same,kcat,[1]; ctPrp43-HL,1.44 s⁻¹
B6,Km,[2]; [3],16.23 ± 2.38 µM
same,kcat,[2]; [3],0.084 s⁻¹
